In assay [1] the target is T1, cynomolgus monkey P-cadherin ECD (cynomolgus monkey).
T1 construct: extracellular domain; also called cyno P-cadherin ECD; Cyno P-cadherin
Briefly: SPR. (In general: SPR reads the build-up and loss of mass on a sensor chip optically.)

For assay [2], the target named is human P-cadherin expressed on the cell surface (human, UniProt P22223 108-829). Briefly: cell-based or functional assay.
human P-cadherin expressed on the cell surface, sequence (P22223 108-829): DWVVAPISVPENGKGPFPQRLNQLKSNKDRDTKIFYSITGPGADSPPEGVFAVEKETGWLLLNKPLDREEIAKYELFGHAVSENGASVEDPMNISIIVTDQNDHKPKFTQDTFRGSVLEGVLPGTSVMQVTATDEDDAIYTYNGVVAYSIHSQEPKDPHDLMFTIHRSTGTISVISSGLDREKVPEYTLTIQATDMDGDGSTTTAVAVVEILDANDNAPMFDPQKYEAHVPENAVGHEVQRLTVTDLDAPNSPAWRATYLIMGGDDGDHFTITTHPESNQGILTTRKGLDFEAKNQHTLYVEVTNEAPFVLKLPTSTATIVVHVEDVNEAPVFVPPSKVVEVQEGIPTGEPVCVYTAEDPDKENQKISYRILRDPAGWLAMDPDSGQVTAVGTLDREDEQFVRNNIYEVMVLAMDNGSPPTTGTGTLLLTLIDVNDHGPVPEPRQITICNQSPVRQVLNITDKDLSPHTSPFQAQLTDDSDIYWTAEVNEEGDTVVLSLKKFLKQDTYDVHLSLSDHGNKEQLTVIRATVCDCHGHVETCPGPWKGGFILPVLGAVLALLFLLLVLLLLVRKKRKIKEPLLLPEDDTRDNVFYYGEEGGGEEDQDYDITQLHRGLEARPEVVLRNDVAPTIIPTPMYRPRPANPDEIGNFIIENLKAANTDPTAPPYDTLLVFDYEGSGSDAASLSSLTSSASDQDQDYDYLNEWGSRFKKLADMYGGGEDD

B1: LP-DART #2 (bispecific antibody)
chain 1: QAVVTQEPSLTVSPGGTVTLTCRSSTGAVTTSNYANWVQQKPGQAPRGLIGGTNKRAPWTPARFSGSLLGGKAALTITGAQAEDEADYYCALWYSNLWVFGGGTKLTVLGGGGSGGGGEVQLVQSGAEVKKPGASVKVSCKASGYTFTSYGISWVRQAPGQGLEWMGWISAYNGNTNYAQKLQGRVTMTTDTSTSTAYMELRSLRSDDTAVYYCATIDTASAFDIWGQGTMVTVSSGGTGGCPPCPAPEAAGAPSVFLFPPKPKDTLMISRTPEVTCVVVDVSHEDPEVKFNWYVDGVEVHNAKTKPREEQYNSTYRVVSVLTVLHQDWLNGKEYKCKVSNKALPAPIEKTISKAKGQPREPQVCTLPPSREEMTKNQVSLWCLVKGFYPSDIAVEWESNGQPENNYKTTPPVLDSDGSFFLYSKLTVDKSRWQQGNVFSCSVMHEALHNHYTQKSLSLSPG
chain 2: QSVLTQPPSVSAAPGQKVTISCSGSSSNIGNNYVSWYQQLPGTAPKLLIYDNNKRPSGIPDRFSGSKSGTSATLGITGLQTGDEADYYCGTWDSSLSAVVFGGGTKLTVLGGGSGGGGEVQLVESGGGLVQPGGSLRLSCAASGFTFNTYAMNWVRQAPGKGLEWVARIRSKYNNYATYYADSVKDRFTISRDDSKNSLYLQMNSLKTEDTAVYYCVRHGNFGNSYVSWFAYWGQGTLVTVSSGGTGGCPPCPAPEAAGAPSVFLFPPKPKDTLMISRTPEVTCVVVDVSHEDPEVKFNWYVDGVEVHNAKTKPREEQYNSTYRVVSVLTVLHQDWLNGKEYKCKVSNKALPAPIEKTISKAKGQPREPQVYTLPPCREEMTKNQVSLSCAVKGFYPSDIAVEWESNGQPENNYKTTPPVLDSDGSFFLVSKLTVDKSRWQQGNVFSCSVMHEALHNHYTQKSLSLSPG
notes: also called P-cadherin LP-DART construct #2 (P-CAD 35, CD3-2)
B1 registered a Kd in assay [1] of 73.5 nM. Moreover, the “T cell Cytotoxicity” value in assay [2] stood at 0.92 nM.

B2: LP-DART #1 (bispecific antibody)
chain 1: QAVVTQEPSLTVSPGGTVTLTCRSSTGAVTTSNYANWVQQKPGQAPRGLIGGTNKRAPWTPARFSGSLLGGKAALTITGAQAEDEADYYCALWYSNLWVFGGGTKLTVLGGGGSGGGGEVQLVQSGAEVKKPGASVKVSCKASGYTFTSYGISWVRQAPGQGLEWMGWISAYNGNTNYAQKLQGRVTMTTDTSTSTAYMELRSLRSDDTAVYYCATIDTASAFDIWGQGTMVTVSSGCPPCPAPEAAGAPSVFLFPPKPKDTLMISRTPEVTCVVVDVSHEDPEVKFNWYVDGVEVHNAKTKPREEQYNSTYRVVSVLTVLHQDWLNGKEYKCKVSNKALPAPIEKTISKAKGQPREPQVCTLPPSREEMTKNQVSLWCLVKGFYPSDIAVEWESNGQPENNYKTTPPVLDSDGSFFLYSKLTVDKSRWQQGNVFSCSVMHEALHNHYTQKSLSLSPG
chain 2: QSVLTQPPSVSAAPGQKVTISCSGSSSNIGNNYVSWYQQLPGTAPKLLIYDNNKRPSGIPDRFSGSKSGTSATLGITGLQTGDEADYYCGTWDSSLSAVVFGGGTKLTVLGGGSGGGGEVQLVESGGGLVQPGGSLRLSCAASGFTFNTYAMNWVRQAPGKGLEWVARIRSKYNNYATYYADSVKDRFTISRDDSKNSLYLQMNSLKTEDTAVYYCVRHGNFGNSYVSWFAYWGQGTLVTVSSGCPPCPAPEAAGAPSVFLFPPKPKDTLMISRTPEVTCVVVDVSHEDPEVKFNWYVDGVEVHNAKTKPREEQYNSTYRVVSVLTVLHQDWLNGKEYKCKVSNKALPAPIEKTISKAKGQPREPQVYTLPPCREEMTKNQVSLSCAVKGFYPSDIAVEWESNGQPENNYKTTPPVLDSDGSFFLVSKLTVDKSRWQQGNVFSCSVMHEALHNHYTQKSLSLSPG
notes: also called P-cadherin LP-DART construct #1 (P-CAD 35, CD3-2)
Take B2: the dissociation constant Kd in assay [1] is 108 nM. In addition, the “T cell Cytotoxicity” value in assay [2] turned out to be 0.79 nM.

The Kd is a measure of binding affinity in units of concentration.
